Assay results published in publication PMC4638040.

T1: Carboxy-terminus of Hsc70-interacting protein (CHIP), His-tagged, wild type, Q9UNE7
T1 chain: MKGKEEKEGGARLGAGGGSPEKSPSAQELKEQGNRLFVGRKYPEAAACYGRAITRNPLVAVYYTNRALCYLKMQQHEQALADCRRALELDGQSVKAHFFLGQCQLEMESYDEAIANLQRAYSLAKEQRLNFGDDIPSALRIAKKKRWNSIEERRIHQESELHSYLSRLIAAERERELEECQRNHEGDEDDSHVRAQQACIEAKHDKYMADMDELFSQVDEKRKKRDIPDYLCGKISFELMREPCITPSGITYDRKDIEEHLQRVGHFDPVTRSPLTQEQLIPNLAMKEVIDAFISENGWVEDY

T2: Carboxy-terminus of Hsc70-interacting protein (CHIP), untagged, K30A mutant (human), Q9UNE7
T2 chain: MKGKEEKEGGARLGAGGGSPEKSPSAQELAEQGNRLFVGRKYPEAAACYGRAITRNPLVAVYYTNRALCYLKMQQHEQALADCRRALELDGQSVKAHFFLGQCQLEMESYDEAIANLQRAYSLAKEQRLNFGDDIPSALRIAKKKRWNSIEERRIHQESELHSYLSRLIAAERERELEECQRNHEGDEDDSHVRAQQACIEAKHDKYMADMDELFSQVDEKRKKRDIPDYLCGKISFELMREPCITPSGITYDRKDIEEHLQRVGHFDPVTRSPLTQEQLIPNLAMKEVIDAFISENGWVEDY


What was measured:
[1] = target: T1, Carboxy-terminus of Hsc70-interacting …; assay: competition binding assay on microtitre wells (luminometer, anti-CHIP antibody); settings: chain shown with the change; signal is His-CHIP wt remaining bound to immobilized GST-IRF-1 in the presence of 5 uM peptide (highest dose); lower signal = more competition by the peptide …; parent: est. 0.05; read off a plot
[2] = target: T2, Carboxy-terminus of Hsc70-interacting …; assay: SEC + other: dynamic light scattering; purified CHIP-K30A; supplemental Fig. S2C, S2D (not shown); settings: remark: other sources report otherwise

response [1] | stoichiometry N [2] | Binder
1.2 RLU |  | SGSGGAAAEEVD
 | 2 | Carboxy-terminus of Hsc70-interacting protein (CHIP), untagged, K30A mutant, Q9UNE7 1-303 (enzyme) MKGKEEKEGGARLGAGGGSPEKSPSAQELAEQGNRLFVGRKYPEAAACYGRAITRNPLVAVYYTNRALCYLKMQQHEQALADCRRALELDGQSVKAHFFLGQCQLEMESYDEAIANLQRAYSLAKEQRLNFGDDIPSALRIAKKKRWNSIEERRIHQESELHSYLSRLIAAERERELEECQRNHEGDEDDSHVRAQQACIEAKHDKYMADMDELFSQVDEKRKKRDIPDYLCGKISFELMREPCITPSGITYDRKDIEEHLQRVGHFDPVTRSPLTQEQLIPNLAMKEVIDAFISENGWVEDY
